Assays:
Settings in all cases: remark: other sources report otherwise
[1] = biological target: SARS-CoV-2 RBD domain, Wuhan (SARS-CoV-2); assay: competition ELISA vs bio-Cv2.1353
[2] = biological target: SARS-CoV-2 RBD domain, Wuhan (SARS-CoV-2); assay: competition ELISA vs bio-Cv2.3235
[3] = biological target: SARS-CoV-2 RBD domain, Wuhan (SARS-CoV-2); assay: RBD-ACE2 competition ELISA; parameters: unit not given beside the values
[4] = biological target: SARS-CoV-2 RBD domain, Wuhan (SARS-CoV-2); assay: ELISA; parameters: unit not given beside the values
[5] = biological target: SARS-CoV-2 RBD domain, Wuhan (SARS-CoV-2); assay: RBD/ACE2 blocking ELISA
[6] = biological target: T1, SARS-CoV-2 Spike (S) protein on cells (S-Flow assay) (SARS-CoV-2), P0DTC2; assay: flow cytometry (Mock 2.5)
[7] = biological target: SARS-CoV-2 RBD domain, Wuhan (SARS-CoV-2); assay: SPR (Biacore), antibody immobilised
[8] = biological target: SARS-CoV-2 RBD domain, Wuhan (SARS-CoV-2); assay: SPR (Biacore), IgG immobilized, viral protein as analyte
[9] = biological target: SARS-CoV-2 RBD domain, Wuhan (SARS-CoV-2); assay: competition ELISA vs bio-Cv2.3194
[10] = biological target: SARS-CoV-2 RBD domain, Wuhan (SARS-CoV-2); assay: ELISA
[11] = biological target: SARS-CoV-2 RBD domain, Wuhan (SARS-CoV-2); assay: ELISA, coated antigen
[12] = biological target: CoV-MERS Spike ectodomain (MERS-CoV), K9N5Q8; assay: ELISA, coated antigen
[13] = biological target: SARS-CoV-1 Spike ectodomain (SARS-CoV-1), P59594; assay: ELISA, coated antigen
[14] = biological target: SARS-CoV-2 RBD domain, Wuhan (SARS-CoV-2); assay: competition ELISA, biotinylated RBD to immobilized ACE2 ectodomain
[15] = biological target: SARS-CoV-2 RBD domain, Wuhan (SARS-CoV-2); assay: competition ELISA vs bio-Cv2.1169
[16] = biological target: SARS-CoV-2 RBD domain, Wuhan (SARS-CoV-2); assay: ELISA; parameters: unit not given beside the values; remark: listed apart in the source
[17] = biological target: SARS-CoV-2 RBD domain, Wuhan (SARS-CoV-2); assay: SPR (Biacore), antibody coupled to CM5 chip, viral protein as analyte
[18] = biological target: SARS-CoV-2 RBD domain, Wuhan (SARS-CoV-2); assay: competition ELISA vs bio-Cv2.5213
[19] = biological target: SARS-CoV-2 RBD domain, Wuhan (SARS-CoV-2); assay: RBD-ACE2 competition ELISA; parameters: unit not given beside the values; remark: listed apart in the source
[20] = biological target: T1, SARS-CoV-2 Spike (S) protein on cells …; assay: S-Flow flow cytometry, spike-expressing cells
[21] = biological target: T1, SARS-CoV-2 Spike (S) protein on cells …; assay: flow cytometry, transfected cells
[22] = biological target: SARS-CoV-2 RBD domain, Wuhan (SARS-CoV-2); assay: ELISA; parameters: unit not given beside the values; remark: listed apart in the source

B1: Cv2.3194 (recombinant human IgG1) (antibody)
heavy: EVQLVESGGGLIQPGGSLRLSCAASGITVTSNYMSWVRQAPGKGLEWVSVIYPGGSTFYADSVKGRFTISRDNSKNTLYLQMNSLRAEDTAVYYCARDLVVYGMDVWGQGTTVTVSSASTKGPSVFPLAPSSKSTSGGTAALGCLVKDYFPEPVTVSWNSGALTSGVHTFPAVLQSSGLYSLSSVVTVPSSSLGTQTYICNVNHKPSNTKVDKKVEPKSCDKTHTCPPCPAPELLGGPSVFLFPPKPKDTLMISRTPEVTCVVVDVSHEDPEVKFNWYVDGVEVHNAKTKPREEQYNSTYRVVSVLTVLHQDWLNGKEYKCKVSNKALPAPIEKTISKAKQPREPQVYTLPPSRDELTKNQVSLTCLVKGFYPSDIAVEWESNGQPENNYKTTPPVLDSDGSFFLYSKLTVDKSRWQQGNVFSCSVMHEALHNHYTQKSLSLSPGK
light: EIVLTQSPGTLSLSPGERATLSCRASQSVSSSYLAWYQQKPGQAPRLLIYGASSRATGIPGRFSGSGSGTDFTLTISRLEPEDFAIYYCQQGVTFGGGTKVEIKRTVAAPSVFIFPPSDEQLKSGTASVVCLLNNFYPREAKVQWKVDNALQSGNSQESVTEQDSKDSTYSLSSTLTLSKADYEKHKVYACEVTHQGLSSPVTKSFNRGEC
Question: What does the source list for B1?
Answer: % inhibition (competition) [1]: 65; % inhibition (competition) [2]: 74; AUC (RBD block.) [3]: 365; AUC [4]: 3; % binding inhibition [5]: 96%; log10 ΔgMFI [6]: 4.4; Kd [7]: < 100 pM; Kd [8]: 6.27 pM; koff [8]: 3.06e-06 s⁻¹; kon [8]: 487000 M⁻¹ s⁻¹; % inhibition (competition) [9]: 72; OD405nm [10]: 3.4; ELISA OD [11]: 3.6 OD; ELISA OD [12]: 0.1 OD; ELISA OD [13]: 0.1 OD; IC50 [14]: 0.099 mg/L; IC90 [14]: 0.185 mg/L; % inhibition (competition) [15]: 56; AUC (RBD bind.) [16]: 13; Kd [17]: < 1 pM; % inhibition (competition) [18]: 70; AUC (RBD block.) [19]: 183; S-Flow (%) [20]: 94%; S-Flow (MFI) [20]: 260000 MFI; log10 ΔgMFI [21]: 4; AUC (RBD bind.) [22]: 12

Source: patent US20240336672A1
